Test results: PMC7278359 (The Journal of Biological Chemistry, 2020)
Blank lines part the entries; values can stand above or below the binder they belong to.

Tests used:
[1] = target: Nck1-SH3.1 (residues 4–59) (human, UniProt P16333 4-59); assay: crystal structure; Nck1-SH3.1 with 2-fold molar excess of Ac-…-NH2; 0.1 M BisTris/HCl pH 6.5, 2 M (NH4)2SO4; space group I212121, two complexes in the asymmetric unit; conditions: both partners purified
[2] = target: Nck1-SH3.1 (residues 4–59) (human, UniProt P16333 4-59); assay: crystal structure; Nck1-SH3.1 (4-59) with 2-fold molar excess of Ac-…-NH2; 0.1 M Bis-Tris/HCl pH 6.5, 2 M (NH4)2SO4; sitting drop, 22 °C; two complexes in the asymmetric unit (5QU2); conditions: both partners purified

binding result [1]: binds
B1: minimal CD3ϵ peptide Ac-PPPVPNPDY-NH2 (residues 180–188) (peptide)
peptide: Ac-PPPVPNPDY-NH2
notes: CD3ϵ residues 180–188 (PRS); MM 1109.3 Da; source: synthetic peptide (bought: Biosynthan)

binding result [2]: binds
B2: CD3ε-derived peptide Ac-PPPVPNPDY-NH2 (residues 180–188) (peptide)
peptide: Ac-PPPVPNPDY-NH2
notes: also called minimal CD3ε peptide; source: synthetic peptide, from Biosynthan
